Measurements reported in patent US20060127402A1 (TECHNION RESEARCH AND DEVELOPMENT FOUNDATION, published 2006).

Target: T1, LOR-1 (lysyl oxidase related protein-1) (human, UniProt Q9Y4K0 26-774, limits assumed)
T1 construct: also called hLOR1
T1 sequence: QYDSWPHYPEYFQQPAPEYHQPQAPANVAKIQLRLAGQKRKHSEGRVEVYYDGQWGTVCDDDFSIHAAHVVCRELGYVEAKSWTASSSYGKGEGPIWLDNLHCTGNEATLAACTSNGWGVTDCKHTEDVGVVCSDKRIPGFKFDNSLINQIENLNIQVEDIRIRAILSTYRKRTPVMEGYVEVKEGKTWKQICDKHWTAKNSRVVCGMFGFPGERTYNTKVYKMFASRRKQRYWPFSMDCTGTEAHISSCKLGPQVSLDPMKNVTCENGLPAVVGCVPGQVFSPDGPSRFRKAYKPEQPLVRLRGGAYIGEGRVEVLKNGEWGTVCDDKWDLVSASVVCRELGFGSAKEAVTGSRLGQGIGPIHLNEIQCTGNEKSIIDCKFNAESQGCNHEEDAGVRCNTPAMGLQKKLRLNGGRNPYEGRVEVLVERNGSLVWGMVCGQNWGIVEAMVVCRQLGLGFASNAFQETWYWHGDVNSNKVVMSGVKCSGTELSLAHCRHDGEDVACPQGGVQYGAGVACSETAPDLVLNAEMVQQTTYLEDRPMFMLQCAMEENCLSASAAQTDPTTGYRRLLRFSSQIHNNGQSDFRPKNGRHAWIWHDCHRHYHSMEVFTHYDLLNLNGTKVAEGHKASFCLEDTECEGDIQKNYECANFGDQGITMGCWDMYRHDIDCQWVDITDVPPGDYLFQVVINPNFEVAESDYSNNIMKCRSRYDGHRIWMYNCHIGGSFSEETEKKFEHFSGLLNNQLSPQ
Test: PF4 affinity column, 35S-methionine labeled cells, SDS-PAGE

binding result: binds
B1: Human recombinant platelet factor-4 (PF4, GenBank Accession number M20901) (ligand, UniProt P02776 32-101, looked up)
chain: EAEEDGDLQCLCVKTTSQVRPRHITSLEVIKAGPHCPTAQLIATLKNGRKICLDLQAPLYKKIIKKLLES
notes: Supplied by Repligen Corp
